Several values for one entry are separate records, joined by “and”; a condition that tells them apart may be missing. Equal values may be shown once. Read-outs that look alike come from different tables or passages of the source.

Our source for the Kd values is paper PMC7195491.

Test [1] has as its target DIP-γ mutant at position 9 (Drosophila melanogaster). Kind of test: SPR; Biacore T100, CM4 chip; DIPs and DIP mutants immobilised by amine coupling (760-980 RU), Dprs and Dpr mutants as analytes (three-fold dilution series, up to 81 μM, in some cases up to 27 or 9 μM); 25 °C; 10 mM Tris-HCl pH 7.2, 150 mM NaCl, 1 mM EDTA, 1 mg/mL BSA, 0.01% Tween-20; equilibrium fit, 1:1 model; for KDs > 300 μM a lower limit is listed. In general terms: Surface plasmon resonance follows binding to a sensor surface in real time, without labels.

Test [2] deals with DIP-γ (Drosophila melanogaster). Described as above.
Test [3] concerns the target DIP-α (Dpr Interacting Protein alpha), extracellular region (Drosophila melanogaster) (UniProt Q9W4R3). Kind of test: SPR; Biacore T100, CM4 chip; DIPs and DIP mutants immobilised by amine coupling, Dprs as analytes; 25 °C; 10 mM Tris-HCl pH 7.2, 150 mM NaCl, 1 mM EDTA, 1 mg/mL BSA, 0.01% Tween-20; duplicate responses fit globally to a 1:1 model; Rmax fixed for KDs > 100 μM, lower limit listed for KDs > 300 μM.

The target in test [4] is DIP-β (isoformG), extracellular region (Drosophila melanogaster). Described as above.
Test [5] has as its target DIP-α G4A {G74A}, extracellular region (Drosophila melanogaster) (UniProt Q9W4R3). Described as above.
Test [6] has as its target DIP-α N19D {N94D}, extracellular region (Drosophila melanogaster) (UniProt Q9W4R3). Described as above.
Test [7] addresses DIP-α K10Q G4S {K81Q G74S}, extracellular region (Drosophila melanogaster) (UniProt Q9W4R3). Described as above.
Test [8] has as its target DIP-α A7K {A78K}, extracellular region (Drosophila melanogaster) (UniProt Q9W4R3). The description is as above.
In test [9] the target is DIP-α K10Q D29S {K81Q D129S}, extracellular region (Drosophila melanogaster) (UniProt Q9W4R3). The description is as above.
In test [10] the target is DIP-α K10Q {K81Q}, extracellular region (Drosophila melanogaster) (UniProt Q9W4R3). The test is described as above.
Test [11] deals with DIP-α (Dpr Interacting Protein alpha), extracellular region (Drosophila melanogaster) (UniProt Q9W4R3). The test is described as above. This is another data set of the same source.
Test [12] addresses DIP-α I16A {I91A}, extracellular region (Drosophila melanogaster) (UniProt Q9W4R3). The test is described as above.
The target in test [13] is DIP-α G4L {G74L}, extracellular region (Drosophila melanogaster) (UniProt Q9W4R3). The test is described as above.
The target of test [14] is DIP-α A11T {A82T}, extracellular region (Drosophila melanogaster) (UniProt Q9W4R3). The description is as above.
Test [15] concerns the target DIP-α K10Q S32D {K81Q S133D}, extracellular region (Drosophila melanogaster) (UniProt Q9W4R3). The test is described as above.
Test [16] deals with DIP-γ (Dpr Interacting Protein gamma), extracellular region (Drosophila melanogaster) (UniProt Q9VAR6). Described as above.
DIP-γ (Dpr Interacting Protein gamma), extracellular region (Drosophila melanogaster), sequence (Q9VAR6 entry or part of it): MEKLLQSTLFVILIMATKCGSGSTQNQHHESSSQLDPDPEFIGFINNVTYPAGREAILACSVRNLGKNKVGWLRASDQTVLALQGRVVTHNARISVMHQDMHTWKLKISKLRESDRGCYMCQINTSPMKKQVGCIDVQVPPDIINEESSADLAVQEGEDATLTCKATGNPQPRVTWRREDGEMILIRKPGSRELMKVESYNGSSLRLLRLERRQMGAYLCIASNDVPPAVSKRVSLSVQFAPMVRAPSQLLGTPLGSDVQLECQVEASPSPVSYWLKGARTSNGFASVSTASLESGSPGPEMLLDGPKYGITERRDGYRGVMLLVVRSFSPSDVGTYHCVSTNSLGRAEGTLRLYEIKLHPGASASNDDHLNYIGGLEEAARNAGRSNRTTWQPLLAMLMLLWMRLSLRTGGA
Test [17] concerns the target DIP-γ R15N {R86N}, extracellular region (Drosophila melanogaster) (UniProt Q9VAR6). The test is described as above.
Test [18] concerns the target DIP-γ R22S {R112S}, extracellular region (Drosophila melanogaster) (UniProt Q9VAR6). Described as above.
Test [19] addresses DIP-γ (Dpr Interacting Protein gamma), extracellular region (Drosophila melanogaster) (UniProt Q9VAR6). The description is as above. This is another data set of the same source.

DIP-γ R22S {R112S}, extracellular region (Drosophila melanogaster), sequence (Q9VAR6 entry or part of it R22S {R112S} | R22S R112S): as the sequence (Q9VAR6 entry or part of it) above, with R112S counted along it
DIP-γ R15N {R86N}, extracellular region (Drosophila melanogaster), sequence (Q9VAR6 entry or part of it R15N {R86N} | R15N R86N): as the sequence (Q9VAR6 entry or part of it) above, with R86N counted along it

Dpr11 (domain or fragment): the Kd in [1] was found to be 37.2 µM; in [2] it was 7.9 µM.

“Dpr10 (Defective proboscis extension response 10), extracellular region (from UniProt M9PF17 1-362) (domain or fragment)”: the Kd in [3] worked out at 1.3 µM; in [4], 33.3 µM; in test [5] it was 0.9 µM; in test [6], 1.4 µM; in test [7] it was 68 µM; in [8] it was 0.28 µM. Moreover, the Kd came to 41.6 µM in test [9]; 31.8 µM in test [10]; 1.4 µM in [11]; 56.9 µM in test [12]; 45.8 µM in [13]; 18.1 µM in test [14]. The Kd in [15] turned out to be 39.1 µM.

With “Dpr11 (Defective proboscis extension response 11), extracellular region (from UniProt Q8MRE6 1-360) (domain or fragment)”, the Kd in test [3] was more than 500 µM; in test [4] it was 270 µM; in test [16], 7.15 µM; in test [17], 13.1 µM; in [18], 9.5 µM; in [19], 8.54 µM and 7.12 µM.

By Kd is commonly meant the constant that tells how readily two partners part at equilibrium. High values mean a looser complex, low ones a tighter complex.
